Experimental data: patent US20180155451A1 (published 2018)
Substitutions are numbered along the chain they refer to. Names may count otherwise. Like-named read-outs stand apart in the source and are kept apart here.

B1: GpH7-A5/GpH7-HA5/GpL16-k0 (antibody, human IgG1, kappa)
heavy 1: not shown
heavy 2: QVQLVQSGAEVKKPGASVTVSCKASGYTFTDYEMHWIRQPPGEGLEWIGAIDPKTGDTAYSESFQDRVTLTADKSTSTAYMELSSLTSEDTAVYYCTRFYSYTYWGQGTLVTVSSASTKGPSVFPLAPSSKSTSGGTAALGCLVKDYFPEPVTVSWNSGALTSGVHTFPAVLQSSGLYSLSSVVTVPSSSLGTQTYICNVNHKPSNTKVDKKVEPKSCDKTHTCPPCPAPEYLGGPSVFLFPPKPKDTLMISRTPEVTCVVVDVSHEDPEVKFNWYVDGVEVHNAKTKPREEQYNSTYRVVSVLTVLHQDWLNGKEYKCKVSNKALRAPIEKTISKAKGQPREPQVYTLPPSRDELTKNQVSLTCLVKGFYPSDIAVEWESNGQPENNYKTTPPVLDSDGSFFLYSKLTVDKSRWQQGNVFSCSVMHEALHNHYTQESLSLSP
light: DIVMTQSPLSLPVTPGEPASISCQASESLVHSNRNTYLHWYLQKPGQSPQLLIYKVSNRFSGVPDRFSGSGSGTDFTLKISRVEAEDVGVYYCSQNTHVPPTFGQGTKVEIERTVAAPSVFIFPPSDEQLKSGTASVVCLLNNFYPREAKVQWKVDNALQSGNSQESVTEQDSKDSTYSLSSTLTLSKADYEKHKVYACEVTHQGLSSPVTKSFNRGEC
notes: H2 L234Y and P329R
B2: GpH7-A5/GpH7-HA6/GpL16-k0 (antibody, human IgG1, kappa)
heavy 1: not shown
heavy 2: B1 heavy 2 with Y232L, G234W
light: B1 light
notes: H2 G236W and P329R
B3: GpH7-A5/GpH7-HA11/GpL16-k0 (antibody, human IgG1, kappa)
heavy 1: not shown
heavy 2: B1 heavy 2 with Y232L, S296A
light: B1 light
notes: H2 S298A and P329R
B4: H240-Kn067/H240-Hl068/L73-k0 (antibody, human IgG1, kappa)
heavy 1: QDQLVQSGAEVKKPGASVKVSCKASGFNIKDTYIQWVRQAPGQGLEWMGRIDPLRKQTKYREKFEGRVTITADTSTNTAYMELSSLRSEDTAVYYCVRSGREFDYWGQGTLVTVSSASTKGPSVFPLAPSSKSTSGGTAALGCLVKDYFPEPVTVSWNSGALTSGVHTFPAVLQSSGLYSLSSVVTVPSSSLGTQTYICNVNHKPSNTKVDKKVEPKSCDKTHTCPPCPAPEYYWGPSVFLFPPKPKDTLMISRTPEVTCVVVDVSDEDPEVKFNWYVDGVEVHNAKTKPREEQYNATYRVVSVLTVLHQDWLNGKEYKCKVSNKDLPAPIEKTISKAKGQPREPQVCTLPPSRDELTKNQVSLWCLVKGFYPSDIAVEWESNGQPENNYKTTPPVLDSDGSFFLYSKLTVDKSRWQQGNVFSCSVMHEALHNHYTQKSLSLSP
heavy 2: QDQLVQSGAEVKKPGASVKVSCKASGFNIKDTYIQWVRQAPGQGLEWMGRIDPLRKQTKYREKFEGRVTITADTSTNTAYMELSSLRSEDTAVYYCVRSGREFDYWGQGTLVTVSSASTKGPSVFPLAPSSKSTSGGTAALGCLVKDYFPEPVTVSWNSGALTSGVHTFPAVLQSSGLYSLSSVVTVPSSSLGTQTYICNVNHKPSNTKVDKKVEPKSCDKTHTCPPCPAPELLGGPSVFLFPPKPKDTLMISRTPEVTCVVVDVSHEEPEVKFNWYVDGVEVHNAKTKPREEQYNSTYRVVSVLTVLHQDWLNGKEYKCKVSNDALPKPIEETISKAKGQPREPQVYTLPPSRCELTKNQVSLSCAVKGFYPSDIAVEWESNGQPENNYKTTPPVLDSDGSFFLVSKLTVDKSRWQQGNVFSCSVMHEALHNHYTQKSLSLSP
light: DIQMTQSPSSLSASVGDRVTITCRASQDIHKYIAWYQQKPGQAPRLLIQYTSTLQPGVPSRFSGSGSGTDYTFTISSLQPEDIATYYCLQYEQLRTFGGGTKVEIKRTVAAPSVFIFPPSDEQLKSGTASVVCLLNNFYPREAKVQWKVDNALQSGNSQESVTEQDSKDSTYSLSSTLTLSKADYEKHKVYACEVTHQGLSSPVTKSFNRGEC
notes: Heterodimerized anti-EREG IgG1: L234Y/L235Y/G236W/H268D/S298A/A327D in Kn067, D270E/K326D/A330K/K334E in Hl068; also called H240-Kn067/H240-HI068/L73-k0
B5: H240-Kn120/H240-Hl068/L73-k0 (antibody, human IgG1, kappa)
heavy 1: B4 heavy 1 with S238M
heavy 2: B4 heavy 2
light: B4 light
notes: Heterodimerized anti-EREG IgG1: Kn120 is H240-Kn067 with S239M
B6: H240-Kn126/H240-Hl068/L73-k0 (antibody, human IgG1, kappa)
heavy 1: B4 heavy 1 with Y234Q, S238M
heavy 2: B4 heavy 2
light: B4 light
notes: Heterodimerized anti-EREG IgG1: Kn126 is H240-Kn120 with Y235Q
B7: H240-Kn037/H240-Hl036/L73-k0 (antibody, human IgG1, kappa)
heavy 1: B4 heavy 1 with Y233L, Y234L, W235A, S238D, D267H, A297S, D326A, I331E
heavy 2: B4 heavy 2 with G235A, S238D, E269D, D325K, K329A, I331E, E333K
light: B4 light
notes: this is a derivation

Key:
[1] = target: T1, FcγRIIIa extracellular domain with C-terminal His tag (human, UniProt P08637 17-208); experiment: SPR relative binding; GpH7-A5/GpH7-B3/GpL16-k0 = 100
T1 construct: extracellular domain; also called FcgRIIIa; 3a; not shown: His tag at the C terminus
Text: First, variants of interest were expressed and prepared according to the method described in Reference Example 1, using GpH7-A5 as an H chain; and GpL16-k0 as the L chain; and as the other H chain, GpH7-HA5 (SEQ ID NO: 19), GpH7-HA6 (SEQ ID NO: 20), and GpH7-HA11 (SEQ ID NO: 21) resulting from the introduction of L234Y, G236W, and S298A, respectively, into GpH7-B12 introduced with the alteration P329R. Furthermore, antibodies of interest were expressed and prepared according to the method described in Reference Example 1, using as an H chain, GpH7-A48 (SEQ ID NO: 16) resulting from the introduction of P329R into GpH7-A5; and GpL16-k0 as the L chain; and as the other H chain, GpH7-B3-01-15Y (SEQ ID NO: 22), GpH7-B3-03-20W (SEQ ID NO: 23), and GpH7-B3-15-02A (SEQ ID NO: 24) resulting from the introduction of L234Y, G236W, and S298A, respectively, into GpH7-B3. The antibodies thus obtained were named GpH7-A5/GpH7-HA5/GpL16-k0 (SEQ ID NOs: 3, 19, and 5, respectively), GpH7-A5/GpH7-HA6/GpL16-k0 (SEQ ID NOs: 3, 20, and 5, respectively), GpH7-A5/GpH7-HA11/GpL16-k0 (SEQ ID NOs: 3, 21, and 5, respectively), GpH7-A48/GpH7-B3-01-15Y/GpL16-k0 (SEQ ID NOs: 16, 22, and 5, respectively), GpH7-A48/GpH7-B3-03-20W/GpL16-k0 (SEQ ID NOs: 16, 23, and 5, respectively), and GpH7-A48/GpH7-B3-15-02A/GpL16-k0 (SEQ ID NO: 16, 24, and 5, respectively). The variants were compared to each other for the FcγRIIIa-binding activity according to the method described in Reference Example 2.
Analysis of interaction between objective antibody and the FcγR was carried out using Biacore T100 (GE Healthcare). HBS-EP+ (GE Healthcare) was used as the running buffer, and the measurement temperature was set to 25° C. Chips produced by immobilizing the antigen peptide by the amine coupling method to a Series S Sencor Chip CM5 (GE Healthcare), or alternatively, chips produced by allowing preliminarily biotinylated antigen peptides to interact with and immobilize onto a Series S Sensor Chip SA (certified) (GE Healthcare) were used. Antibodies of interest were captured onto an antigen peptide-immobilized chip, and allowed to interact to each FcγR diluted with running buffer. To regenerate and repeatedly use the chip, the antibodies captured on the chip were washed off by reacting 10 mM glycine-HCl, pH 1.5.

[2] = target: T2, FcgRIIa H (human, UniProt P12318 34-217); experiment: SPR (Biacore), antibody captured on chip, FcgR extracellular domain as analyte
T2 construct: extracellular domain; also called FcγRIIa H; FcγRIIa type H; not shown: His tag attached to the C terminus
T2 sequence (looked up): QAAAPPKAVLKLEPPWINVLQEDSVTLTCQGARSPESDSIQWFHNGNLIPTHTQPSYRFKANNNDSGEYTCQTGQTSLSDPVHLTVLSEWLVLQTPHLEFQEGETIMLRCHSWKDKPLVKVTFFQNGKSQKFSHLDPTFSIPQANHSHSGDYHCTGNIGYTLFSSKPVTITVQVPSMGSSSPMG
Procedure: (§1) Analysis of interaction between obj ective antibody and the FcγR was carried out using Biacore T100 (GE Healthcare), Biacore T200, Biacore A100, and Biacore 4000. HBS-EP+ (GE Healthcare) was used as the running buffer, and the measurement temperature was set to 25° C. Chips produced by immobilizing the antigen peptide by the amine coupling method to a Series S sensor Chip CM5 (GE Healthcare), chips produced by allowing preliminarily biotinylated antigen peptides to interact with and immobilize onto a Series S Sensor Chip SA (certified) (GE Healthcare), chips produced by immobilizing Protein L (ACTIGEN, BioVision) to Series S Sencor Chip CM5 (GE Healthcare), or chips produced by immobilizing Protein A/G (Thermo Scientific) to Series S Sencor Chip CM5 (GE Healthcare) were used. Antibodies of interest were captured onto these chips, and allowed to interact to each FcγR diluted with running buffer. To regenerate and repeatedly use the chip, the antibodies captured onto the chip were washed off by reacting 10 mM glycine-HCl, pH 1.5.

[3] = target: T3, FcgRIIIa F (human, UniProt P08637 17-208); experiment: as above
T3 construct: extracellular domain; also called FcγRIIIa F; not shown: His tag attached to the C terminus
Procedure: as §1

[4] = target: T4, FcgRIIIa V (human, UniProt P08637 17-208); experiment: as above
T4 construct: extracellular domain; also called FcγRIIIa V; not shown: His tag attached to the C terminus
Procedure: as §1

[5] = target: T5, FcgRIIa R (human, UniProt P12318 34-217); experiment: as above
T5 construct: extracellular domain; also called FcγRIIa R; FcγRIIa type R; not shown: His tag attached to the C terminus
T5 sequence (looked up): T2 sequence (looked up) with H134R
Procedure: as §1

[6] = target: T2, FcgRIIa H; experiment: as above; remark: listed apart in the source
Procedure: (§2) Specifically, H240-Kn120 (SEQ ID NO: 99) resulting from introduction of S239M into H240-Kn067 and H240-Kn126 (SEQ ID NO: 100) resulting from introduction of Y235Q into H240-Kn120 were prepared according to the method described in Reference Example 1. […] Those described above were assayed for the binding to each FcgR according to the method described in Reference Example 8.
as §1

[7] = target: T6, FcgRIIb (human, UniProt P31994 43-217); experiment: as above
T6 construct: extracellular domain; Expressed in FreeStyle293 cells and purified; used as analyte in Biacore; also called FcγRIIb; CD32B; not shown: His tag attached to the C terminus
T6 sequence (looked up): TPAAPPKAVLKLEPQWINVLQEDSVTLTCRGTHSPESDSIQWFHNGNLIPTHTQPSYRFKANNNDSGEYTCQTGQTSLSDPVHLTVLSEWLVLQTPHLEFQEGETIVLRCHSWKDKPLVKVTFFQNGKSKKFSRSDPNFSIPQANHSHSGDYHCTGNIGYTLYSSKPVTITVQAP
Procedure: as §2, §1

[8] = target: T7, FcgRIa (human, UniProt P12314 16-292); experiment: as above
T7 construct: extracellular domain; Expressed in FreeStyle293 cells and purified; used as analyte in Biacore; also called FcγRIa; FcγRI; not shown: His tag attached to the C terminus
Procedure: as §2, §1

[9] = target: T3, FcgRIIIa F; experiment: as above; remark: listed apart in the source
Procedure: as §2, §1

[10] = target: T4, FcgRIIIa V; experiment: as above; remark: listed apart in the source
Procedure: as §2, §1

[11] = target: T5, FcgRIIa R; experiment: as above; remark: listed apart in the source
Procedure: as §2, §1

T3 sequence (P08637 17-208): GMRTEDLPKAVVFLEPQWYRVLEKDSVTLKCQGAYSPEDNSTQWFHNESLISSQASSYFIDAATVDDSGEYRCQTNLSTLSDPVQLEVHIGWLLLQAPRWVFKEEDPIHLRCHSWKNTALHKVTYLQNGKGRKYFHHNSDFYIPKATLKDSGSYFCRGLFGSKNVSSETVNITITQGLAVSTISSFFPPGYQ
T1 sequence (P08637 17-208): as above
T4 sequence (P08637 17-208 F176V limits assumed): as the sequence (P08637 17-208) above, with F160V counted along it
T7 sequence (P12314 16-292): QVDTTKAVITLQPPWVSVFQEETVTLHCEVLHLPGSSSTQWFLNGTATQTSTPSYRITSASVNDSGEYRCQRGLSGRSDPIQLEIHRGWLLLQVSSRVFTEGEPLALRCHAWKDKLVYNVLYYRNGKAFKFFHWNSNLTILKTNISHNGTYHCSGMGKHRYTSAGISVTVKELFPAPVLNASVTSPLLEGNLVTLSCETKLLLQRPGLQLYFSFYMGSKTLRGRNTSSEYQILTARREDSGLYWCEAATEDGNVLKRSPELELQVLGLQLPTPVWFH

| FcγRIIIa BINDING ACTIVITY [1] | Kd [2] [nM] | Kd [3] [nM] | Kd [4] [nM] | Kd [5] [nM] | Kd [6] [nM] | Kd [7] [nM] | Kd [8] [nM] | Kd [9] [nM] | Kd [10] [nM] | Kd [11] [nM] | Binder |
| --- | --- | --- | --- | --- | --- | --- | --- | --- | --- | --- | --- |
| 60 % of control | – | – | – | – | – | – | – | – | – | – | B1 |
| 56 % of control | – | – | – | – | – | – | – | – | – | – | B2 |
| 84 % of control | – | – | – | – | – | – | – | – | – | – | B3 |
| – | 94 | 7.1 | 1.6 | 49 | 94 | 370 | 0.26 | 7.1 | 1.6 | 49 | B4 |
| – | – | – | – | – | 59 | 150 | 0.37 | 2.4 | 0.66 | 17 | B5 |
| – | – | – | – | – | 170 | 520 | 0.4 | 3.7 | 0.64 | 76 | B6 |
| – | – | – | – | – | 46 | 380 | 0.098 | 21 | 6.8 | 29 | B7 |
